In patent US20250026842A1:
Blank lines part the entries; values can stand above or below the binder they belong to.

Target: pre-anti-drug antibodies (pre-ADAs) in individual serum samples taken from healthy humans
Assay: ELISA, coated sdAb, 40 healthy donor sera (1:5), anti-human lambda chain-HRP, OD415

percent of serum samples with detectable sdAb-reactive pre-ADAs: 12.5%
B1: P2-2 (protein)
VH: HHHHHHGGGGSEVQLLESGGGLVQPGGSLRLSCAASGFTFAHETMVWVRQAPGKGLEWVSHIPPDGQDPFYADSVKGRFTISRDNSKNTLYLQMNSLRAEDTAVYHCALLPKRGPWFDYWGQGTLVTVSSA

percent of serum samples with detectable sdAb-reactive pre-ADAs: 57.5%
B2: P2-1 (protein)
VH: HHHHHHGGGGSEVQLLESGGGLVQPGGSLRLSCAASGFTFAHETMVWVRQAPGKGLEWVSHIPPDGQDPFYADSVKGRFTISRDNSKNTLYLQMNSLRAEDTAVYHCALLPKRGPWFDYWGQGTLVTVSS
